Numbering of substitutions follows the chain as printed.
B1: mAb8: humanized I-394 variant, VH H2 (SEQ ID NO: 29), VL L1 (SEQ ID NO: 36) (antibody, V domains shown)
VH: QVQLVQSGAEVKKPGASVKVSCKASGYTFTDYNMHWVRQAPGQRLEWMGYIVPLNGGSTFNQKFKGRATITVDTSASTAYMELSSLRSEDTAVYYCARGGTRFAYWGQGTLVTVSS
VL: DIVMTQSPDSLAVSLGERATINCRASESVDNFGVSFMYWFQQKPGQPPKLLIYGASNQGSGVPDRFSGSGSGTDFTLTISSLQAEDVAVYYCQQTKEVPYTFGGGTKVEIK
B2: mAb23: humanized I-394 variant, VH H4* (SEQ ID NO: 34), VL L1 (SEQ ID NO: 36) (antibody, V domains shown)
VH: B1 VH with M48I, N61S, K65Q, S77R
VL: B1 VL
B3: mAb9: humanized I-394 variant, VH H2 (SEQ ID NO: 29), VL L1* (SEQ ID NO: 37) (antibody, V domains shown)
VH: B1 VH
VL: B1 VL with R24K
B4: mAb14: humanized I-394 variant, VH H3 (SEQ ID NO: 30), VL L1 (SEQ ID NO: 36) (antibody, V domains shown)
VH: B1 VH with M48I
VL: B1 VL
B5: mAb24: humanized I-394 variant, VH H4* (SEQ ID NO: 34), VL L1* (SEQ ID NO: 37) (antibody, V domains shown)
VH: B1 VH with M48I, N61S, K65Q, S77R
VL: B1 VL with R24K
B6: mAb15: humanized I-394 variant, VH H3 (SEQ ID NO: 30), VL L1* (SEQ ID NO: 37) (antibody, V domains shown)
VH: B1 VH with M48I
VL: B1 VL with R24K

Key:
[1] = Stability in reference formulation (storage, freeze thaw); format: physicochemical; settings: about 7 mg/mL, pH 6.0 histidine/sucrose/NaCl/PS80, +5° C. and +40° C., up to 1 month
Method: (§1) Antibodies mAb1-24 and prior art anti-CD39 antibody BY40, all produced as human IgG1 isotypes with L234A/L235E/G237A/A330S/P331S substitutions were tested for stability in the following reference formulation at a concentration of approximatively 7 mg/mL: pH 6.0; histidine buffer (10 mM); sucrose (200 mM); NaCl (50 mM); Polysorbate 80 (PS80) (0.2 g/L). The stability of the formulations was monitored in two storage conditions (at +5° C.±3° C. and at +40±3° C. For each study, 3 time points were performed: T0, T15D (15 days) and T1M (1 month). A freeze thaw (F/T) and a thermal shift stability assay (TSSA) were conducted for the format comparison. To perform F/T cycles, the samples were frozen at least 2 hours at −20° C. and thawed at least 1 hour at room temperature, the F/T cycle is repeated three times and samples are tested 24 h after the last Freeze/Thaw cycle. At each time point, the following tests were performed: • Particulate Matter (MFI) • Visual Inspection (Appearance) • Impurities (SE-HPLC) • Turbidity (400 nm) • Protein Concentration (280 nm) (performed with Nanodrop, Thermo Fisher Scientific Inc.)

[2] = target: T1, human Ramos lymphoma cells (CD39) (Homo sapiens, UniProt P49961); test: Antibody titration on Ramos cells by flow cytometry; format: binding; settings: comparison
T1 construct: cells that endogenously express CD39 at their surface; host or cells: Ramos
T1 sequence (P49961 1-510): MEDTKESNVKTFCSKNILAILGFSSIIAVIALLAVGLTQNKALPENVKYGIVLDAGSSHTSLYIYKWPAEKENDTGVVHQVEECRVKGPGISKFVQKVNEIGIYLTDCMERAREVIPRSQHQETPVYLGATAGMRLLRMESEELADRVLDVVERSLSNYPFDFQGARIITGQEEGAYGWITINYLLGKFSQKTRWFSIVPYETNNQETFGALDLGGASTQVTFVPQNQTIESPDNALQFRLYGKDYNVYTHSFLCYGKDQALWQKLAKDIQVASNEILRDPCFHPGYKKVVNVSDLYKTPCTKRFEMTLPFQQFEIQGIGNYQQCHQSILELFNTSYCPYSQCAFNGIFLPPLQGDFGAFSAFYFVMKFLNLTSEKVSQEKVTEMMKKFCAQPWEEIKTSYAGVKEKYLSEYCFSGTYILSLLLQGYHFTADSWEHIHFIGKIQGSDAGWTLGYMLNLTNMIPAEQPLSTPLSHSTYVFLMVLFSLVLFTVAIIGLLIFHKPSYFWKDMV
Method: Antibody I-394 was tested in two repeated experiments for binding to CHO cells expressing human CD39, CHO cells expressing cynomolgus (Macaca fascicularis) CD39, CHO cells expressing murine CD39, and human Ramos lymphoma cells (ATCC™, reference CRL-1596). Cells were incubated with various concentration of unlabeled anti-CD39 antibody from 30 μg/ml to 5×10^−4 μg/ml, for 30 minutes at 4° C. After washes, cells were incubated with Goat anti-mouse H+L labeled secondary antibody for 30 min at 4° C.

[3] = Aggregation temperature (thermal shift stability assay); format: physicochemical; settings: human IgG1 with L234A/L235E/G237A/A330S/P331S
Method: as §1

[4] = target: T2, CD39 expressed by Ramos human lymphoma cells (Homo sapiens, UniProt P49961); test: Inhibition of the enzymatic activity of cellular CD39 in Ramos cells; format: cell-based; settings: Ramos cells
T2 construct: cells that endogenously express CD39 at their surface; host or cells: Ramos
T2 sequence (P49961 1-510): T1 sequence (P49961 1-510)
Method: The inhibition of the CD39 enzymatic activity in CD39-expressing cells by antibodies was evaluated using Cell Titer GIo™ (Promega, reference G7571) that allows assessment of ATP hydrolysis through use of a reagent that generates a luminescent signal proportional to the amount of ATP present. The assay was thus designed to permit assessment of the inhibition of ATP hydrolyzed by CD39 in the cell culture supernatant. Briefly, 5×10^4 Ramos human lymphoma cells, 5×10^3 human CD39−, cynomolgus CD39—and mouse CD39− expressing CHO cells, were incubated 1 hour at 37° C. with anti-CD39 antibodies from 30 μg/ml to 5×10^−4 μg/ml. Cells were then incubated with 20 μM ATP for 1 additional hour at 37° C. Plates were centrifuged for 2 min at 400 g and 50 μl cell supernatant are transferred in a luminescence microplate (white wells). 50 μl CellTiter-Glo™ Reagent (CTG) was added to the supernatant and emitted light was quantified after a 5 min incubation in the dark using a Enspire™ luminometer. Anti-CD39 antibody efficacy was determined by comparing emitted light in presence of antibody with ATP alone (maximal light emission) and ATP together with cells (minimal light emission).

[5] = target: T3, soluble recombinant human CD39 protein (Homo sapiens, UniProt P49961); test: Inhibition of the enzymatic activity of soluble CD39 (Cell Titer Glo, cell-free); format: biochemical; settings: humanized variants
T3 construct: made in house; host or cells: CHO cells
T3 sequence (P49961 with tags, fused parts or gaps): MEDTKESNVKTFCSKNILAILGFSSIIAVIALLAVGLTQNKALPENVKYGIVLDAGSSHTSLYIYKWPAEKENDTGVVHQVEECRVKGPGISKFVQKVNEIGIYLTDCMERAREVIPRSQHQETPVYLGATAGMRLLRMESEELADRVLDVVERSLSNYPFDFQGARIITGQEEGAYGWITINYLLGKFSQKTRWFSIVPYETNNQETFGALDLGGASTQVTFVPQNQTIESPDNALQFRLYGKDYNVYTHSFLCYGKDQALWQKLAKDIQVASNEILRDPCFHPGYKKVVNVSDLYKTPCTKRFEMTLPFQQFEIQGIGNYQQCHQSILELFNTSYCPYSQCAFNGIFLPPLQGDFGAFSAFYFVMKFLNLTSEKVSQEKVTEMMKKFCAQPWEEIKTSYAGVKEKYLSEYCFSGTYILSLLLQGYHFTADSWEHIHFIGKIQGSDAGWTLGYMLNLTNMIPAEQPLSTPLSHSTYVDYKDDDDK
Method: The inhibition by antibodies of the enzymatic activity of soluble CD39 protein produced was evaluated using Cell Titer GIo™ (Promega, reference G7571) that allows assessment of ATP hydrolysis through use of a reagent that generates a luminescent signal proportional to the amount of ATP present. In this way, inhibition of the soluble-CD39-meidated ATP hydrolysis can be assessed. Briefly, dose ranges of anti-CD39 antibodies from 100 μg/ml to […] were incubated with 400 ng/ml of soluble recombinant human CD39 protein having the amino acid sequence described in the Methods section (SEQ ID NO: 44), for 1 h at 37° C. 20 μM ATP was added to the plates for 30 additional minutes at 37° C. before addition of CTG (Cell Titer Glo) reagent. Emitted light was quantified using an Enspire™ luminometer after a short incubation period of 5 min in the dark. Anti-CD39 antibody efficacy was determined by comparing emitted light in presence of antibody with ATP alone (maximal light emission) and ATP together with soluble CD39 protein (minimal light emission).

Molecule | physicochemical stability [1] | binding to Ramos cells relative to I-394 [2] | Aggregation temperature (TAgg) [3] [°C] | potency at blocking CD39 enzymatic activity relative to other antibodies [4] | potency for inhibition of soluble CD39 relative to parental I-394 [5]
B1 | good physicochemical stability | best binding | ~70 | – | –
B2 | – | – | – | slightly lower potency than mAb20 and mAb21 | –
B3 | good physicochemical stability | best binding | ~70 | – | –
B4 | – | – | – | – | comparable to the parental I-394 antibody
B5 | – | – | – | slightly lower potency than mAb20 and mAb21 | –
B6 | – | – | – | – | comparable to the parental I-394 antibody

From patent publication US12202907B2, “Nucleic acids encoding and methods of producing proteins comprising antibody chains” (Innate Pharma, priority 2018, dated 2025)
